Experimental data as given in the supplement of paper PMC9170038.

Tested on: MS2 coat protein
Assay: apparent KD of MS2 coat protein; designed switch direction (-1 OFF switch, 1 ON switch): -1; higher = weaker reporter binding
Summary of the method: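 Stalled E. coli RNA polymerase transcribed designed RNA switches on Illumina chips, which were then titrated with SNAP-549-labelled MS2 coat protein, doubling from 0.7 or 1.5 nM to 3 µM. Steps lasted from 0.8–1.5 h at the lowest concentration to 10–20 min at the highest. The apparent KD is each design's median over clusters of curve-fitted normalised fluorescence.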

[1] = Eterna round: R95, input ligand: FMN 200 uM
[2] = Eterna round: R95, input ligand: microRNA oligo, concentration not stated
[3] = Eterna round: R95, input ligand: none
[4] = input ligand: microRNA oligo, concentration not stated

Sequence | apparent KD of MS2 coat protein [2] | apparent KD of MS2 coat protein (input ligand: FMN 200 uM) | apparent KD of MS2 coat protein (input ligand: none) | other results
GUGGUAGGUUUUUCGAGUAACAUGAGGAUCACCCAUGUAUUAGUUGGAUGUAUCAAGCUUUUUGCUCGACUUAUAAA [JR_SV3TOV1_Sub043] (puzzle: Sensor v3, turn-off variant 1) | 40.6 nM |  |  | apparent KD of MS2 coat protein [1]: 249 nM; apparent KD of MS2 coat protein [3]: 288 nM
GGUUAUUGCAAGGAUAUGCUUUUUUUUUAUAUUGCAGAAGGUGCAACAUGAGGAUCACCCAUGUUGGAGGGAUU [JR_E6_Sub021] (puzzle: Exclusion 6) | 28.9 nM |  |  | 
GGCGAGGGAGGAUAUACGUGAUUGAUGCCGGGAACCCAGAGACAUGAGGAUCACCCAUGUAGAAGGCCCGGCUA [EX2 B.4] (Eterna round: R97, puzzle: Exclusion 2) |  | 10.9 nM | 14.5 nM | 
UAAUUAAUUAAUUAAUAAUACAUGAGGAUCACCCAUGUAGAUCCUACAUACAAUUUAAGUAGCUCGUCUUAUAAUUA [Stov1/1-A1] (Eterna round: R97, puzzle: Sensor, turn-off variant 1) |  | 206 nM | 264 nM | 
UAUAUAUAGUAAGGAUAUGUAUUAAUCUUAUAAACAGAAGGUACUGACAUGAGGAUCACCCAUGUUUUAGUGUGGGCAUGUAGA [JMF's solution 79] (Eterna round: R96, puzzle: Exclusion NG 1) |  |  |  | apparent KD of MS2 coat protein [4]: 54.8 nM
CUUUUGUGAGGAUAUCAGUAGUAAAAAAAUAAAAUUACUAUUGAGAAGGCACAUGAGGAUCACCCAUGUUCCUC [salish99_ex4_r3_029] (puzzle: Exclusion 4) | 36.4 nM |  |  | 
UGCGUACAUGAGGAUCACCCAUGUGAGGAUAUUUGGCAUCGCGAGUGCCCAAGGAGAUAGAGAAGGCAUAUGGA [Eternabot (L1) Solution 50] (Eterna round: R97, puzzle: Exclusion 1) |  | 34.3 nM | 37.2 nM | 
UAUUAGCAAGCGAGAUCCCACAUGAGGAUCACCCAUGUAGCAUCCAGAAUUACUGGGUGCAAAAGCUCGUCUUAUUA [Winner reversed engineered 4] (Eterna round: R97, puzzle: Sensor, turn-off variant 1) |  | 25.4 nM | 26.1 nM | 
GCAAGCUUUUGCUCGUCUUACAUGAGGAUCACCCAUGUUGGGUCCGGUCGCCGCGGCCGGGCCGGCCGGGCGCCGGG [-38, -65.5 kcal, A 10%] (Eterna round: R97, puzzle: Sensor, turn-off variant 1) |  | 31.2 nM | 33.3 nM | 
ACAACUGUAGGAUAUACUUUCUGGGUAAGCCAUUAUACUGGACAUGAGGAUCACCCAUGUAGAAGGACAGAAAG [Eternabot (Original) Solution 36] (Eterna round: R97, puzzle: Exclusion 2) |  | 29.6 nM | 35.1 nM | 
CCUCAGUAAGGAUAUCAGCUUAUGGAGGUGGUAAUGAGAGCUGAGAAGGUACAUGAGGAUCACCCAUGUUAGUU [JL Zatite mod 1] (puzzle: Exclusion 4) | 46.2 nM |  |  | 
GCUGGUCGAGGAUAUACAAUCGUGCUUCGGCACGUAAGAUCACAUGAGGAUCACCCAUGUAGAAGGUGACCAGC [E2/1-B3] (Eterna round: R97, puzzle: Exclusion 2) |  | 118 nM | 25.1 nM | 
CAAUAUUACUGAGGAUAUCCUAUUGUAUUUCAGGGAGAAGGCAGACUCAACAUGAGGAUCACCCAUGUAAGACGGGUACUAGAU [Ex NG1 #18] (Eterna round: R96, puzzle: Exclusion NG 1) |  | 97 nM | 98.2 nM | apparent KD of MS2 coat protein [4]: 77.4 nM
AGUGGGCUAGGAUAUCGAUGAACUCACAUGAGGAUCACCCAUGUGUCUUCGGUGGGCGCGCGAGAAGGAGUGAGAU [Belaange] (puzzle: Exclusion 5) | 26.9 nM |  |  | apparent KD of MS2 coat protein [1]: 63.6 nM; apparent KD of MS2 coat protein [3]: 37.9 nM
CAGGACAGAGGAUAUACAUAGAUACAGAUUCAUGUAGAACUACAUGAGGAUCACCCAUGUAGAAGGCUGUCCUG [Fiskers Ex 2 - 3] (Eterna round: R96, puzzle: Exclusion 2) |  | 370 nM | 33.5 nM | apparent KD of MS2 coat protein [4]: 25 nM
AUAAUGUAAGGAUAUCAGUCGACUAGCGAUAGCUAGUCGACUGAGAAGGUACAUGAGGAUCACCCAUGUGAAUA [E4/16-A4] (Eterna round: R97, puzzle: Exclusion 4) |  | 213 nM | 46 nM | 

Sequence | apparent KD of MS2 coat protein [2] | apparent KD of MS2 coat protein (input ligand: FMN 200 uM) | apparent KD of MS2 coat protein (input ligand: none) | other results
ACCAAUCAUGUAGGAUAUGCGUGGCGAAGCUAUGCAGAAGGACAUGAGGAUCACCCAUGUGCUUCCGUCUGCGUACAGACGGUA [Mat - Exclusion NG 1 - Mod of JL - D17] (Eterna round: R96, puzzle: Exclusion NG 1) |  | 49.2 nM | 92.3 nM | apparent KD of MS2 coat protein [4]: 38.3 nM
AAACGCUGAGGAUAUAUAUAACAACAAAGCCUCACGUGCCAACAUGAGGAUCACCCAUGUAGAAGGCAGCCCAA [Mod R3 Insanara 12 - Jieux - Exclusion 2] (Eterna round: R97, puzzle: Exclusion 2) |  | 15.8 nM | 14.1 nM | 
ACAUUGAUUGUGAGGAUAUCGAUGUGAUGGUAUGUCGAGAAGGCACAUGAGGAUCACCCAUGUGGGUUGUAGCA [JR_BMEx4_Sub035] (Eterna round: R97, puzzle: Brourd's mod of Exclusion 4) |  | 291 nM | 95.2 nM | 
UAUCCACAUGAGGAUCACCCAUGUGAGGAUAUGUCCAUAUUCGGCAAAUCGGAUAUGGACAGAAGGCACACCGG [JR_Exclusion1_Sub011] (puzzle: Exclusion 1) | 35.4 nM |  |  | 
GAAUAGAGAGGAUAUGCGAAGUAGGUAGUACGAUAUAUCUGACAUGAGGAUCACCCAUGUAGAAGGCUCAGAUC [EX2 #5] (Eterna round: R97, puzzle: Exclusion 2) |  | 34.4 nM | 40.3 nM | 
AUAAUGUGAGGAUAUAUGAAUCACGGUGAUACACCGUGAAGAUAGAAGGUACAUGAGGAUCACCCAUGUAGGGC [Mod of Anonveat 14 - Jieux - Exclusion 4] (Eterna round: R97, puzzle: Exclusion 4) |  | 39.5 nM | 42.3 nM | 
CAUUUGUGAGGAUAUCAGGUGUGCUAGCGUACUGGUACAUCUGAGAAGGCACAUGAGGAUCACCCAUGUUCCUC [Mat - Exclusion 4 - Mod of JL - D35] (puzzle: Exclusion 4) | 44.1 nM |  |  | 
ACUAGAUGAGGAUAUGCAUGUUUUCGUGUUCUUCUAGAUUAACAUGAGGAUCACCCAUGUAGAAGGCGUCAUAU [Exclusion 2 - 29] (puzzle: Exclusion 2) | 45 nM |  |  | 
GACAGUCGAGGAUAUACGAUCGUGCUUCGGCACGUAAGAUCACAUGAGGAUCACCCAUGUAGAAGGCGACUGUC [Mod 6 - Jieux - Exclusion 2] (Eterna round: R97, puzzle: Exclusion 2) |  | 234 nM | 31.7 nM | 
GGCCCAUGAGGAUAUCAGUCUGGAUCAGACUAGAUCCUGACUGAGAAGGCACAUGAGGAUCACCCAUGUAGGCC [Eli 4x 4.30] (Eterna round: R97, puzzle: Exclusion 4) |  | 17.3 nM | 23.6 nM | 
GUAGAGUAAGGAUAUUGUGAAUAGGAUAGAAUGGUUAGAAGCAAGAAGGUACAUGAGGAUCACCCAUGUAAUGU [Excluse me!!!! 25 - Jieux - Exclusion 4] (puzzle: Exclusion 4) | 23.1 nM |  |  | 
ACGCAUUGCCUUUGGUAGUGCGUAACAUGAGGAUCACCCAUGUAGGAUAUGGUAGGCUUUGCUUACCAGAAGGACAUUGUUGAU [Omei mod of JL ENG3 1.03] (Eterna round: R96, puzzle: Exclusion NG 3) |  | 220 nM | 130 nM | apparent KD of MS2 coat protein [4]: 107 nM
AAGAAACAUGAGGAUCACCCAUGUGAGGAUAUGACAAAGAAAAGAAAAGAAAGAAGAUUCAGAAGGCACAAAGG [salish99-ex1_r3_036] (puzzle: Exclusion 1) | 53.6 nM |  |  | apparent KD of MS2 coat protein [1]: 90.5 nM; apparent KD of MS2 coat protein [3]: 70.4 nM
AGAUGUAGAUACCGAUCCUACAUGAGGAUCACCCAUGUAGCUAGACGUGCCCGCGUCGCUCGUCAGACUACCAGUAG [salish99_TOv1_r3_090] (puzzle: Sensor v3, turn-off variant 1) | 248 nM |  |  | apparent KD of MS2 coat protein [1]: 252 nM; apparent KD of MS2 coat protein [3]: 269 nM
CCGCUCCGUGUAGGAUAUUGGCCUGCUCUGGGCCGAGAAGGACAUGAGGAUCACCCAUGUAUGUUAUUAUCACGCGUGGCGCAU [Design 79] (Eterna round: R96, puzzle: Exclusion NG 1) |  | 31.6 nM | 21.6 nM | apparent KD of MS2 coat protein [4]: 14.5 nM
CAUCUCGUAGGAUAUUCACAAAAGCACAUGAGGAUCACCCAUGUUAUCCGACAUGAUGCCGAAGAAGGACGAAAAC [Di] (puzzle: Exclusion 5) | 79.8 nM |  |  | apparent KD of MS2 coat protein [1]: 107 nM; apparent KD of MS2 coat protein [3]: 78.9 nM
